Test results published in paper PMC3913652 (PLoS ONE, 2014).

B1: dog albumin (natural protein, UniProt P49822 25-608, looked up)
chain: EAYKSEIAHRYNDLGEEHFRGLVLVAFSQYLQQCPFEDHVKLAKEVTEFAKACAAEESGANCDKSLHTLFGDKLCTVASLRDKYGDMADCCEKQEPDRNECFLAHKDDNPGFPPLVAPEPDALCAAFQDNEQLFLGKYLYEIARRHPYFYAPELLYYAQQYKGVFAECCQAADKAACLGPKIEALREKVLLSSAKERFKCASLQKFGDRAFKAWSVARLSQRFPKADFAEISKVVTDLTKVHKECCHGDLLECADDRADLAKYMCENQDSISTKLKECCDKPVLEKSQCLAEVERDELPGDLPSLAADFVEDKEVCKNYQEAKDVFLGTFLYEYARRHPEYSVSLLLRLAKEYEATLEKCCATDDPPTCYAKVLDEFKPLVDEPQNLVKTNCELFEKLGEYGFQNALLVRYTKKAPQVSTPTLVEVSRKLGKVGTKCCKKPESERMSCAEDFLSVVLNRLCVLHEKTPVSERVTKCCSESLVNRRPCFSGLEVDETYVPKEFNAETFTFHADLCTLPEAEKQVKKQTALVELLKHKPKATDEQLKTVMGDFGAFVEKCCAAENKEGCFSEEGPKLVAAAQAALV
B2: monkey albumin (natural protein, UniProt A2V9Z4 25-608, looked up)
chain: DTHKSEVAHRFKDLGEEHFKGLVLVAFSQYLQQCPFEEHVKLVNEVTEFAKTCVADESAENCDKSLHTLFGDKLCTVATLRETYGEMADCCAKQEPERNECFLQHKDDNPNLPPLVRPEVDVMCTAFHDNEATFLKKYLYEVARRHPYFYAPELLFFAARYKAAFAECCQAADKAACLLPKLDELRDEGKASSAKQRLKCASLQKFGDRAFKAWAVARLSQKFPKAEFAEVSKLVTDLTKVHTECCHGDLLECADDRADLAKYMCENQDSISSKLKECCDKPLLEKSHCLAEVENDEMPADLPSLAADYVESKDVCKNYAEAKDVFLGMFLYEYARRHPDYSVMLLLRLAKAYEATLEKCCAAADPHECYAKVFDEFQPLVEEPQNLVKQNCELFEQLGEYKFQNALLVRYTKKVPQVSTPTLVEVSRNLGKVGAKCCKLPEAKRMPCAEDYLSVVLNRLCVLHEKTPVSEKVTKCCTESLVNRRPCFSALELDEAYVPKAFNAETFTFHADMCTLSEKEKQVKKQTALVELVKHKPKATKEQLKGVMDNFAAFVEKCCKADDKEACFAEEGPKFVAASQAALA
B3: rat albumin (natural protein, UniProt P02770 25-608, looked up)
chain: EAHKSEIAHRFKDLGEQHFKGLVLIAFSQYLQKCPYEEHIKLVQEVTDFAKTCVADENAENCDKSIHTLFGDKLCAIPKLRDNYGELADCCAKQEPERNECFLQHKDDNPNLPPFQRPEAEAMCTSFQENPTSFLGHYLHEVARRHPYFYAPELLYYAEKYNEVLTQCCTESDKAACLTPKLDAVKEKALVAAVRQRMKCSSMQRFGERAFKAWAVARMSQRFPNAEFAEITKLATDVTKINKECCHGDLLECADDRAELAKYMCENQATISSKLQACCDKPVLQKSQCLAEIEHDNIPADLPSIAADFVEDKEVCKNYAEAKDVFLGTFLYEYSRRHPDYSVSLLLRLAKKYEATLEKCCAEGDPPACYGTVLAEFQPLVEEPKNLVKTNCELYEKLGEYGFQNAVLVRYTQKAPQVSTPTLVEAARNLGRVGTKCCTLPEAQRLPCVEDYLSAILNRLCVLHEKTPVSEKVTKCCSGSLVERRPCFSALTVDETYVPKEFKAETFTFHSDICTLPDKEKQIKKQTALAELVKHKPKATEDQLKTVMGDFAQFVDKCCKAADKDNCFATEGPNLVARSKEALA

Biological target: T1, [Leu^14]exenatide-ABD (leucine substituted for methionine at position 14 (stands in the printed …, C-terminus -OH (Table 1)))
T1 construct: numbers count on: the exenatide peptide; Gly-Gly-Ser tri-peptide linker; 88 residue peptide; also called ABD fused exenatide; source: synthetic peptide (solid phase, reverse-phase HPLC)
Experiment: SPR; BioRad ProteOn XPR36, GLC sensor chip, 25°C; albumins amine-coupled (2000-5000 RU), peptides flowed over at 3 concentrations in duplicate; 10 mM HEPES pH 7.4, 150 mM NaCl, 3 mM EDTA, 0.005% Tween-20, 0.2 mg/ml ovalbumin; highest concentration dissociated for 3 hours; 1:1 (Langmuir) model with correction for mass transfer
Conditions: both partners purified

**Q.** For B1, which Kd is on record?
**A.** 0.0981 nM

**Q.** For B2, which Kd is on record?
**A.** 0.0402 nM

**Q.** How did the Kd turn out when B3 was run?
**A.** 0.0082 nM
